The series has as its system S1 zinc finger array (six-finger designed ZF) (artificial (designed)). Put plainly: EMSA. The following applies: EMSA: ZBA buffer (composition not given), 0.05% NP-40, 0.1 mg/ml BSA, 10% glycerol, 35-75 pM target, 1.5 h at room temperature; pH not given.

In turn, “CCTCTTCGCTATTACGCCAGCCATGCGTAGGGAGCCGCGGAACGTTCGATCGTACTCGAGTCAGGGTG (double strand) [S1 target site EMSA probe]” returned a Kd of 5 nM.

These data come from publication PMC4786922.
